In assay [1] the target is C. elegans TDP2 UBA domain, CeTDP2 (41-100) (C. elegans) (UniProt Q9XWG3). Nature of the assay: NMR titration.
Assay [2] shares this target. Kind of assay: fluorescence polarisation.
Assay [3] deals with Human ubiquitin (monoUb) (human) (UniProt P0CG48). Kind of assay: NMR titration.

pKd: −log10 of the molar value.

One may read the pKd as the Kd on a negative log10 scale, so that one unit is a factor of ten. “K63-linked diubiquitin (from UniProt P0CG48 1-76) (complex)” had a pKd in assay [1] of 4.99. “Human ubiquitin (monoUb) (from UniProt P0CG48 1-76) (natural protein)”: the figures for the pKd in assay [2] and in assay [1] were 4.40 and 3.92, respectively. In assay [3], “C. elegans TDP2 UBA domain, CeTDP2 (41-100) (from UniProt Q9XWG3 41-100) (domain or fragment)” had a pKd of 4.00. “K48-linked diubiquitin (from UniProt P0CG48 1-76) (complex)” gave a pKd in assay [2] of 5.08.
